Measurements as given in patent US20040203101A1 (Human Genome Sciences, published 2004).

What was measured:
human two-chain tPA [1] = target: T1, human two-chain tPA (human, UniProt P00750 36-310; P00750 311-562); experiment: comparison of rates of inhibition from Table I; reference BAIT with uPA
T1 construct: Two-chain (cleaved) form; also called tctPA

thrombin = thrombin (Homo sapiens (Human), UniProt P00734 328-363; P00734 364-622); experiment: kinetic constants for the interaction of BAIT with proteinases; method not described
plasmin = plasmin (Homo sapiens (Human), UniProt P00747 97-580; P00747 581-810, Two chains joined by disulfide bonds after cleavage of plasminogen at Arg580-Val581 (precursor count).); experiment: as above
bovine beta trypsin [2] = target: T2, bovine beta trypsin (bovine, UniProt P00760 24-246); experiment: as above
T2 construct: also called β-trypsin

[3] = target: T3, human high molecular weight uPA (human, UniProt P00749 21-431); experiment: as above
T3 construct: also called uPA-H

[4] = target: human low molecular weight uPA (human, UniProt P00749 156-431); experiment: as above
human two-chain tPA [5] = target: T1, human two-chain tPA; experiment: as above
human single-chain tPA = target: T4, human single-chain tPA (human, UniProt P00750 36-562); experiment: as above
T4 construct: also called sctPA

bovine beta trypsin [6] = target: T2, bovine beta trypsin; experiment: cell-based or functional assay
[7] = target: tissue-type plasminogen activator, tPA (Genentech) (human, UniProt P00750 36-562); experiment: cell-based or functional assay
[8] = target: urokinase-type plasminogen activator, uPA (Serono) (UniProt P00749 21-431, limits assumed); experiment: cell-based or functional assay
human two-chain tPA [9] = target: T1, human two-chain tPA; experiment: comparison of rates of inhibition; reference PN-1 with tPA
human two-chain tPA [10] = target: T1, human two-chain tPA; experiment: comparison of rates of inhibition; reference PAI-1 with tPA

T4 sequence (P00750 36-562 limits assumed): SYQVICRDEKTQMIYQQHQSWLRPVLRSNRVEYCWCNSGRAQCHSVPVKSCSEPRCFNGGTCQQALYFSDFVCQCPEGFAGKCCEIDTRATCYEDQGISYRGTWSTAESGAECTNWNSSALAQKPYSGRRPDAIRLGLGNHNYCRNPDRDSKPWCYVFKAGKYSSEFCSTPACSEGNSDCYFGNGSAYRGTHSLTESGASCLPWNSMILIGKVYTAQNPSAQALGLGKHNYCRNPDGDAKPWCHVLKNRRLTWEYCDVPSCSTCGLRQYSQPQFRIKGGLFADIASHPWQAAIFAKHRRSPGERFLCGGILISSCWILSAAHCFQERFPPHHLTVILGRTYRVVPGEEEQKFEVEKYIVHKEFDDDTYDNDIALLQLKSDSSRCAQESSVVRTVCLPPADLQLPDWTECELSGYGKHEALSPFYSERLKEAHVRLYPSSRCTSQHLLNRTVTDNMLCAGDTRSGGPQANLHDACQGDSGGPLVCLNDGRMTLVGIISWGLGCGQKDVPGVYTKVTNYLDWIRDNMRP
Sequence of plasmin (P00747 97-580 limits assumed, form in doubt, chain 1 of 2): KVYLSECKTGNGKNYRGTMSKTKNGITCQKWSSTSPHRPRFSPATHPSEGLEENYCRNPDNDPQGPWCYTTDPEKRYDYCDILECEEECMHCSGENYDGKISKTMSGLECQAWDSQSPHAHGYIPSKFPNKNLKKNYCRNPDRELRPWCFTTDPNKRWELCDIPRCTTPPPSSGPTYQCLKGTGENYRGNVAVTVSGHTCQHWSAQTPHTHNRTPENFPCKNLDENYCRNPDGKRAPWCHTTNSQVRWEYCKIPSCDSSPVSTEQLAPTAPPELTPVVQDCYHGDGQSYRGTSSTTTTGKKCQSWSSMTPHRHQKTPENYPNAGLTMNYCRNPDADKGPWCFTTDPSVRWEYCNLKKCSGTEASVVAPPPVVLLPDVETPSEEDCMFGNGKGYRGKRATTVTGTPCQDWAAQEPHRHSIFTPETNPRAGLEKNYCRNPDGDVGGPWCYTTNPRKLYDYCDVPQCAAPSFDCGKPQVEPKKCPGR
Sequence of plasmin (P00747 581-810 limits assumed, form in doubt, chain 2 of 2): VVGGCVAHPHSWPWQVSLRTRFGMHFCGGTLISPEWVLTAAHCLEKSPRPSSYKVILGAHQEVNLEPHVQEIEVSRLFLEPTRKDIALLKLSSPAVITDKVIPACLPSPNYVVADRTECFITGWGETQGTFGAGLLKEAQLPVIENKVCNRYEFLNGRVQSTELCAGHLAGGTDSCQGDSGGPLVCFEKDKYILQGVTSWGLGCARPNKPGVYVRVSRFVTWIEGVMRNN
T1 sequence (P00750 36-310 limits assumed, chain 1 of 2): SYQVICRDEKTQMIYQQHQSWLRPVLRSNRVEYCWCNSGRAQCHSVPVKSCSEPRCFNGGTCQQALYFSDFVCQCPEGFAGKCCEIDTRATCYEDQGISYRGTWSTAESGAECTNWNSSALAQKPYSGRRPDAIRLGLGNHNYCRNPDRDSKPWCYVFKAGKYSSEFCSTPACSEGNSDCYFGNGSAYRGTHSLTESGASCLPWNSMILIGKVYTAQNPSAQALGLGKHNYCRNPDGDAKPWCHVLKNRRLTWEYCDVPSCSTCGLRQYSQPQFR
T1 sequence (P00750 311-562 limits assumed, chain 2 of 2): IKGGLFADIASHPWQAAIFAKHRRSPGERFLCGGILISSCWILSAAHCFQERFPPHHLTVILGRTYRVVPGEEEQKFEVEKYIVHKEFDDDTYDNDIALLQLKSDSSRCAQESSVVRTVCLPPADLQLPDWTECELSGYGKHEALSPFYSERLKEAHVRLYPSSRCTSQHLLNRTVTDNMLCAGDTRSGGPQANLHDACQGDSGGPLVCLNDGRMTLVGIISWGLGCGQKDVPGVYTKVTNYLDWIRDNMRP
T2 sequence (P00760 24-246 limits assumed): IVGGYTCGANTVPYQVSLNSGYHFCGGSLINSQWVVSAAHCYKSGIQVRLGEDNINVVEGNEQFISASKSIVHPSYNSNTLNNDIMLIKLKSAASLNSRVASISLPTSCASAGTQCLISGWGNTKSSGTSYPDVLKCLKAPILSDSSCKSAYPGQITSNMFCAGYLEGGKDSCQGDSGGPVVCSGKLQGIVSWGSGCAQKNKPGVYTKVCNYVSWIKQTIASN
Sequence of tissue-type plasminogen activator, tPA (Genentech) (P00750 36-562 limits assumed): as the sequence (P00750 36-562 limits assumed) above

B1: human BAIT (Brain-Associated Inhibitor of Tissue-Type Plasminogen Activator), mature protein expressed in baculovirus/Sf9 cells and purified (other)
chain: ATFPEEAIADLSVNMYNRLRATGEDENILFSPLSIALAMGMMELGAQGSTQKEIRHSMGYDSLKNGEEFSFLKEFSNMVTAKESQYVMKIANSLFVQNGFHVNEEFLQMMKKYFNAAVNHVDFSQNVAVANYINKWVENNTNNLVKDLVSPRDFDAATYLALINAVYFKGNWKSQFRPENTRTFSFTKDDESEVQIPMMYQQGEFYYGEFSDGSNEAGGIYQVLEIPYEGDEISMMLVLSRQEVPLATLEPLVKAQLVEEWANSVKKQKVEVYLPRFTVEQEIDLKDVLKALGITEIFIKDANLTGLSDNKEIFLSKAIHKSFLEVNEEGSEAAAVSGMIAISRMAVLYPQVIVDHPFFFLIRNRRTGTILFMGRVMHPETMNTSGHDFEEL
modifications: glycosylated (positions not stated)
notes: The preparation has mixed N-termini (also called BAIT protein); neural serpin
fold faster rate of inhibition of tPA than of uPA (human two-chain tPA [1]): ~25 fold | K (thrombin): 0.64 µM | k (thrombin): 0.000131 s⁻¹ | ki (thrombin): 210 M⁻¹ s⁻¹ | K (plasmin): 0.15 µM | k (plasmin): 5.2e-05 s⁻¹ | ki (plasmin): 360 M⁻¹ s⁻¹ | K (bovine beta trypsin [2]): 0.16 µM | k (bovine beta trypsin [2]): 0.0096 s⁻¹ | ki (bovine beta trypsin [2]): 59000 M⁻¹ s⁻¹ | K [3]: 0.2 µM | k [3]: 0.005 s⁻¹ | ki [3]: 25000 M⁻¹ s⁻¹ | K [4]: 1.4 µM | k [4]: 0.013 s⁻¹ | ki [4]: 9200 M⁻¹ s⁻¹ | K (human two-chain tPA [5]): 0.12 µM | k (human two-chain tPA [5]): 0.078 s⁻¹ | ki (human two-chain tPA [5]): 620000 M⁻¹ s⁻¹ | K (human single-chain tPA): 2.1 µM | k (human single-chain tPA): 0.17 s⁻¹ | ki (human single-chain tPA): 80000 M⁻¹ s⁻¹ | half-maximal inhibitory concentration (IC50) of proteolytic activity, single step chromogenic assay (bovine beta trypsin [6]): 0.7 µM | half-maximal inhibitory concentration (IC50) of proteolytic activity, single step chromogenic assay [7]: 0.2 µM | half-maximal inhibitory concentration (IC50) of proteolytic activity, single step chromogenic assay [8]: 1 µM | fold faster reaction with tPA than PN-1 (human two-chain tPA [9]): ~20 fold | fold slower reaction with tPA than PAI-1 (human two-chain tPA [10]): ~30 fold
